# Laboratory results taken from US20260092100A1 (ICOSAVAX, published 2026).
# B1: 17D10 hIgG1 (antibody, V domains shown)
# VH: QVQLQQPGAELVKPGASVKMSCKASGYTFTSYWITWVKQRPGQGLEWIGDIYPGSGSITYNEKFKTKATLTVDTSSSTAYMQLNSLTSEDSAVYYCAGLLRLTFDVWGTGTTVTVSS
# VL: DIQLTQTTSSLSASLGDRVTISCRASQDISNYLNWYQQKPDGTVKLLISYTSGLHSGVPSRFSGSGSGTDYSLTISNLEQEDIATYFCQQGNTLPWTFGGGTKLEIKR
# notes: Recombinant form with human IgG1 Fc; also called Human 17D10 mAB; 171D10 hIgG1
# B2: 17D10 (mouse) (antibody, V domains shown)
# VH: B1 VH
# VL: DIQLTQTTSSLSASLGDRVTISCRASQDISNYLNWYQQKPDGTVKLLISYTSGLHSGVPSRFSGSGSGTDYSLTISNLEQEDIATYFCQQGNTLPWTFGGGTKLEIK
# notes: Mouse IgG1 / kappa; also called Mouse 17D10 mAB; 17D10 mIgG
# B3: 42C2 (mouse) (antibody, V domains shown)
# VH: QVTLKESGPGILQPSQTLSLTCSFSGFSLSTFGMGVVWTRQPSGKGLEWLAHIWWDDDNYYNPALKSRLTISKDTSKNQVFLKIANADTADTATYYCARIVKVLEQYFDVWGTGTTVTVSS
# VL: DIMMTQSHKFMSTSVGDRVIFTCKASQDVGTAVAWYQQKSGQSPKLLIYWASTRHTGVPDRFTGSGSGTDFTLTISNVQSEDLADYFCQQYTSYPLTFGAGTKLELK
# notes: Mouse IgG1 / kappa; also called 42C2 mIgG; 42C2 mAB
# B4: 42C2 hIgG1 (antibody, V domains shown)
# VH: B3 VH
# VL: DIMMTQSHKFMSTSVGDRVIFTCKASQDVGTAVAWYQQKSGQSPKLLIYWASTRHTGVPDRFTGSGSGTDFTLTISNVQSEDLADYFCQQYTSYPLTFGAGTKLELKR
# notes: Recombinant form with human IgG1 Fc
# B5: 13E10 (mouse) (antibody, V domains shown)
# VH: EVKLVESGGGLVQPGGSLSLSCAASGFTFTDYYMNWVRQPPGKALEWLGFIRNKDNGYTTEYSASVKGRFTISRDNSQSILYLQMNALRAEDSATYYCTRYYFGYDGDYFDYWGQGTTLTVSS
# VL: EIVLTQSPTTMAASPGEKITITCSASSSISSNYLHWYQQKAGFSPKLLIYRTSNLASGVPARFSGSGSGTSYSLTIGTMEAEDVATYYCQQGSSLPRTFGGGTKLEIK
# notes: Mouse IgG1 / kappa; also called 13E10 mIgG
# B6: 17E10 (antibody, mouse IgG1, V domains shown)
# VH: B1 VH
# VL: B2 VL
# B7: 13E10 hIgG1 (antibody, V domains shown)
# VH: B5 VH
# VL: EIVLTQSPTTMAASPGEKITITCSASSSISSNYLHWYQQKAGFSPKLLIYRTSNLASGVPARFSGSGSGTSYSLTIGTMEAEDVATYYCQQGSSLPRTFGGGTKLEIKR
# notes: as for B4
# Target: T1, DS-Cav1 (RSV control) (UniProt P03420 26-513)
# T1 construct: also called RSV F protein; RSV F
# Assay: Octet biolayer interferometry, bottom panel titled 'anti-DS-Cav1-dn5B specificity'; format and concentrations not given
row,Binder,binding result
1,B1,no binding
2,B2,no binding

# Target: T2, hMPV033 antigen (ectodomain 1-472 of the UT-A CL-28 hMPV F mutant fused to I53-50A) (human metapneumovirus, A strain)
# T2 construct: A 6-Gly linker replaces the F1/F2 cleavage site; The stabilising mutations T127C, N153C, A185P, V231I, L219K, G294E, T365C and V463C are already in the entry; A GS linker and I53-50A follow; also called hMPV033 F protein; I53-50A-hMPV033
# T2 chain: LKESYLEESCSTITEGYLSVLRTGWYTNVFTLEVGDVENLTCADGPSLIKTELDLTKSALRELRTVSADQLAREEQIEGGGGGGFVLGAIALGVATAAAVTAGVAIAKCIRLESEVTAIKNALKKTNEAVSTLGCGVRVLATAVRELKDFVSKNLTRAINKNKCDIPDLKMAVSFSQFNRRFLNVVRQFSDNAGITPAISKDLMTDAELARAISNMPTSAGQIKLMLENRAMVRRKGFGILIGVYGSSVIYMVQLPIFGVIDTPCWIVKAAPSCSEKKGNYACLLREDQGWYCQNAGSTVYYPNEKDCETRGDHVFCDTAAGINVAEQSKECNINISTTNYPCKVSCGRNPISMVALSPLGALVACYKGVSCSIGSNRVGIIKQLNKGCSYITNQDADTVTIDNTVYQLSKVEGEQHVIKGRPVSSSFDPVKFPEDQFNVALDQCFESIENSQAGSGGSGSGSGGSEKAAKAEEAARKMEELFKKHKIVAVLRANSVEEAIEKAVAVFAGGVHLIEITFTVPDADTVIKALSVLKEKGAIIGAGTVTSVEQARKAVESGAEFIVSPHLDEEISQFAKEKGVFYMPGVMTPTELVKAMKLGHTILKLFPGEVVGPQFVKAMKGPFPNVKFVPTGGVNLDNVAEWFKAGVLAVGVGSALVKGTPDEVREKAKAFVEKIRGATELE
# Assay: BLI (Octet)
row,Binder,binding result
1,B1,binds

# Target: T1, DS-Cav1 (RSV control)
# Assay: Octet biolayer interferometry, bottom panel titled 'anti-DS-Cav1-CompA specificity'; format and concentrations not given
row,Binder,binding result
1,B3,no binding
2,B4,no binding

# Target: T2, hMPV033 antigen (ectodomain 1-472 of …)
# Assay: Octet biolayer interferometry: mouse antibody captured on Protein G biosensors, CompA-hMPV033 (panel title 'Pre Fusion hMPV-F') at 10 µg/mL in solution, 120 s association and 120 s dissociation
row,Binder,binding result
1,B2,binds
2,B3,binds
3,B5,binds

# Target: T3, hMPV F protein on hMPV/A virus (human metapneumovirus, subtype A, UniProt Q6WB98 19-539)
# Assay: cell-based or functional assay
row,Binder,"hMPV/A neutralization assay titer, supernatant [log2]"
1,B2,> 5
2,B6,> 5
3,B3,> 5
4,B5,> 5

# Target: T1, DS-Cav1 (RSV control)
# Assay: Octet biolayer interferometry, bottom panel titled 'anti-DS-Cav1-CompA specificity'; format and concentrations not given
# Remark: another data set of the same source
row,Binder,binding result
1,B5,no binding
2,B7,no binding

# Target: T3, hMPV F protein on hMPV/A virus
# Assay: cell-based or functional assay
# Remark: another data set of the same source
Binder,"IC50, final serum dilution [µg/mL]","IC50, original serum dilution [µg/mL]","hMPV/A RL Bx Titer (Log 2), microneutralization assay [log2]"
B1,0.0345,0.138,10.5
B2,0.0488,0.195,10
B3,0.0977,0.391,9
B4,0.0691,0.276,9.5
B5,0.195,0.781,8
B7,0.0977,0.391,9

# Target: T2, hMPV033 antigen (ectodomain 1-472 of …)
# Assay: summary of characterisation
row,Binder,binding result
1,B4,binds
2,B7,binds
